Assay results: patent US20140120095A1 (Boehringer Ingelheim, published 2014)
One block for each binder: values may come before it.

Tests used:
VEGF = VEGF (UniProt P15692-4 27-191, limits assumed); experiment: cell-based or functional assay
[1] = target: DII4-His (C-terminal His-tagged human DII4, amino acid 27-524) (human, UniProt Q9NR61 25-522); experiment: cell-based or functional assay
[2] = target: T1, human DLL4 overexpressed on cells (human, UniProt Q9NR61 27-685); experiment: cell-based or functional assay
[3] = target: T2, mouse DLL4 overexpressed on cells (mouse, UniProt Q9JI71 27-686); experiment: FACS titration on HEK293-mDLL4 cells, MCF
T2 construct: whole, on cells; also called CHO-mDLL4; CHO-mDII4
Experimental: (§1) In order to determine the cynomologus cross-reactivity of the VHHs, a FACS binding experiment is performed. Cynomolgus DII4 expressing HEK293 cells (transient or stable transfection) are used for a titration binding experiment of the VHHs. After a 30 minutes incubation on ice, all samples are washed and detection is performed by applying anti-c-myc˜Alexa647 (Santa Cruz Biotechnology, Santa Cruz, Calif., USA). Human and mouse DII4 overexpressing HEK293 cells are taken as reference. The mean MCF value is determined on the FACS Array and used for calculation of the EC₅₀ value (see FIG. 9 A-E).

recombinant mouse DLL4 = target: T3, recombinant mouse DLL4 (mouse, UniProt Q9JI71 27-532); experiment: binding ELISA, coated rmDLL4
T3 construct: extracellular domain; also called rmDLL4; mDLL4
Experimental: (§2) In order to determine cross-reactivity to mouse DII4 a binding ELISA is performed. […] Wells are blocked with a casein solution (1% in PBS). VHHs are applied as dilution series and binding is detected using a mouse anti-myc (Roche) and an anti-mouse-AP conjugate (Sigma, St Louis, Mo., USA) (FIG. 7 A-H). As reference, binding to human DII4 is measured.

recombinant human DLL4 [4] = target: T4, recombinant human DLL4 (human, UniProt Q9NR61 25-522); experiment: binding ELISA, coated rhDLL4
T4 construct: also called rhDLL4; hDLL4
Experimental: as §2

[5] = target: T2, mouse DLL4 overexpressed on cells; experiment: FMAT, labelled hNotch1-Fc on CHO-mDLL4, periplasmic extract
Text: (§3) All calculations are based on the FL1_total signal which comprises the average of the fluorescence per well times the number of counts per well.

[6] = target: T5, cynomolgus DLL4 overexpressed on cells (cynomolgus, UniProt Q9NR61 27-685 (human entry)); experiment: FACS titration on HEK293-cDLL4 cells, MCF
T5 construct: also called cyno DII4; cDLL4
T5 chain: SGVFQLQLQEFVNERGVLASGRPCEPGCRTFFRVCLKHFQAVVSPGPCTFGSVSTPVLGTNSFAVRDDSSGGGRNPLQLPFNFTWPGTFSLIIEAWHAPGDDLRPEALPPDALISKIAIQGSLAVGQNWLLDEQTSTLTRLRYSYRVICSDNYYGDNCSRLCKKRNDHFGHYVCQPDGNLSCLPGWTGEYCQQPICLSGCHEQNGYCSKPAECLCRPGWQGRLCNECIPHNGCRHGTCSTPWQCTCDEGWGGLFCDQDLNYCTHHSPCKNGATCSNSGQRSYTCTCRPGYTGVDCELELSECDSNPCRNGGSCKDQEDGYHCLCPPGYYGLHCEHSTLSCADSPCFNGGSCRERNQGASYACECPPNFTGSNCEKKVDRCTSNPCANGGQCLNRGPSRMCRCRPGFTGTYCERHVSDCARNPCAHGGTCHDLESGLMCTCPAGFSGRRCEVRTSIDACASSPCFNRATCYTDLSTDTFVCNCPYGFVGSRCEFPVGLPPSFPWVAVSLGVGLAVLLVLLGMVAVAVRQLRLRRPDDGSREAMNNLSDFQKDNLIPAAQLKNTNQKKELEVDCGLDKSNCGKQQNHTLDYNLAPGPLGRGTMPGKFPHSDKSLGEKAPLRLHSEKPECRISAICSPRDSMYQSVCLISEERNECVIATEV
Experimental: as §1

human Jagged-1 = target: T6, human Jagged-1 (human, UniProt P78504 34-1067, limits assumed); experiment: binding ELISA on coated recombinant human Jagged-1, OD 405 nm
T6 construct: also called hJagged-1; hJAG1
Experimental: Absence of binding to homologous ligands human DLL1 and human Jagged-1 is assessed via solid phase binding assay (ELISA). In brief, human DLL1 (Alexis, San Diego, Calif., USA) and human Jagged-1 (Alexis, San Diego, Calif., USA) are coated overnight at 4° C. at 1 μg/mL in a 96-well MaxiSorp plate (Nunc, Wiesbaden, Germany). Wells are blocked with a casein solution (1% in PBS). VHHs are applied as dilution series and binding is detected using a mouse anti-myc (Roche) and an anti-mouse-AP conjugate (Sigma, St. Louis, Mo., USA).

recombinant human DLL4 [7] = target: T4, recombinant human DLL4; experiment: SPR Biacore T100, hDLL4 on chip, VHH/Fab injected
Experimental: Kinetic analysis to determine the affinity of the DII4-VHH interaction is performed by Surface Plasmon Resonance (SPR) on a Biacore T100 instrument. […] Purified VHHs or Fab fragment are injected for 2 minutes at different concentrations (between 10 and 300 nM) and allowed to dissociate for 20 min at a flow rate of 45 μl/min. Between sample injections, the surfaces are regenerated with 10 mM glycine pH1.5 and 100 mM HCl. HBS-N (Hepes buffer pH7.4) is used as running buffer. If possible, data are evaluated by fitting a 1:1 interaction model (Langmuir binding) onto the binding curves. The affinity constant KD is calculated from resulting association and dissociation rate constants (kₐ) and […].

recombinant human DLL4 [8] = target: T4, recombinant human DLL4; experiment: competition ELISA, biot-hDLL4 to coated hNotch1-Fc
Text: Residual binding of biotinylated human DII4 is detected using horseradish peroxidase (HRP) conjugated extravidin (Sigma, St. Louis, Mo., USA) (FIG. 3 A-C). Human DII4 is biotinylated as described above.

[9] = target: T1, human DLL4 overexpressed on cells; experiment: FMAT, labelled hNotch1-Fc on CHO-hDLL4, periplasmic extract
Text: as §3

[10] = target: T2, mouse DLL4 overexpressed on cells; experiment: competitive FMAT, hNotch1-Fc on CHO-mDLL4
[11] = target: T1, human DLL4 overexpressed on cells; experiment: competitive FMAT, hNotch1-Fc on CHO-hDLL4
[12] = target: T7, recombinant human VEGF165 (human, UniProt P15692-4 27-191, biotinylated in the competition assays); experiment: AlphaScreen, hVEGF165/hVEGFR2-Fc competition
T7 construct: Bought protein; also called hVEGF165; rhVEGF165
Experimental: (§4) Finally, streptavidin donor beads (20 μg/ml) are added and after 1 hour of incubation in the dark, fluorescence is measured on the Envision microplate reader.

[13] = target: T7, recombinant human VEGF165; experiment: AlphaScreen, hVEGF165/hVEGFR1-Fc competition; design: % inhibition: concentration or dose not given beside the values
Experimental: as §4

[14] = target: T7, recombinant human VEGF165; experiment: binding ELISA, coated rhVEGF165
[15] = target: T7, recombinant human VEGF165; experiment: SPR Biacore, immobilised hVEGF165, two state reaction model
Experimental: Samples are injected for 2 min and allowed to dissociate up to 20 min at a flow rate of 45 μl/min. In between sample injections, the chip surface is regenerated with 100 mM HCl. HBS-EP+(Hepes buffer pH7.4+EDTA) is used as running buffer. Binding curves are fitted using a Two State Reaction model by Biacore T100 Evaluation Software v2.0.1.
^{(a)}KD = kd1/kₐ₁ * (kd2/(kd2 + kₐ₂)) ^{(b)}Curves are fitted using a Two State Reaction model by Biacore T100 Evaluation Software v2.0.1

[16] = target: VEGF (used to stimulate HUVEC cells) (UniProt P15692-4 27-191, limits assumed); experiment: cell-based or functional assay
[17] = target: T7, recombinant human VEGF165; experiment: ELISA, hVEGF165/hVEGFR2-Fc competition; design: % inhibition: concentration or dose not given beside the values
[18] = target: T7, recombinant human VEGF165; experiment: AlphaScreen, hVEGF165/hVEGFR2-Fc competition; design: % inhibition: concentration or dose not given beside the values
Experimental: as §4

recombinant human DLL4 [19] = target: T4, recombinant human DLL4; experiment: competition AlphaScreen, biot-hDLL4/hNotch1-Fc
Experimental: In brief, 1 nM biotinylated human DII4 is captured on streptavidin-coated donor beads (20 μg/mL), while 0.4 nM of the receptor human Notch1 (as a Fc fusion protein) is captured on anti-human Fc VHH-coated acceptor beads (20 μg/mL). Both loaded beads are incubated together with a dilution range of the competing VHH (FIG. 4 A-E).

T2 sequence (Q9JI71 27-686): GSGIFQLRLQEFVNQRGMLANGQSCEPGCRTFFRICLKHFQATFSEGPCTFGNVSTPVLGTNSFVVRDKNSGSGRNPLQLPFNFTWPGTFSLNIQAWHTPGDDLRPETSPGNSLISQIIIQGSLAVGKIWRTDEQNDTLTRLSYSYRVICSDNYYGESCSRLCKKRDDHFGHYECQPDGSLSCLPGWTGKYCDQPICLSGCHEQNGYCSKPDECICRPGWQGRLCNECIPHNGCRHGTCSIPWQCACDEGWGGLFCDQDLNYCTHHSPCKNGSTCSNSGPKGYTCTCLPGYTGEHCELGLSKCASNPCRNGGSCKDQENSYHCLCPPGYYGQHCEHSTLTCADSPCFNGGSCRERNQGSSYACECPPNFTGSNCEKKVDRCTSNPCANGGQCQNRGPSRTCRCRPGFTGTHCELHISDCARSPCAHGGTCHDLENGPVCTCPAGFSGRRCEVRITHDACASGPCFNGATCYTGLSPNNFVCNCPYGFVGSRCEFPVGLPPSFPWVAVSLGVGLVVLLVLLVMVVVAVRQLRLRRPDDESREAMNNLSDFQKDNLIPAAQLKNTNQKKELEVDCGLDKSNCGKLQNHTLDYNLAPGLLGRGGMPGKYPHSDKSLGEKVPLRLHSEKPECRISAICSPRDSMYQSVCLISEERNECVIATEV
T7 sequence (P15692 other isoform, or with tags, fused parts or gaps): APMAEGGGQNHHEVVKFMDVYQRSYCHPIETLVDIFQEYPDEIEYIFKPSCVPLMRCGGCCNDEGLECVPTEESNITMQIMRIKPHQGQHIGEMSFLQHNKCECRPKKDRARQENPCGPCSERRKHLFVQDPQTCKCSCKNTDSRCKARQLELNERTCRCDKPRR
T3 sequence (Q9JI71 27-532): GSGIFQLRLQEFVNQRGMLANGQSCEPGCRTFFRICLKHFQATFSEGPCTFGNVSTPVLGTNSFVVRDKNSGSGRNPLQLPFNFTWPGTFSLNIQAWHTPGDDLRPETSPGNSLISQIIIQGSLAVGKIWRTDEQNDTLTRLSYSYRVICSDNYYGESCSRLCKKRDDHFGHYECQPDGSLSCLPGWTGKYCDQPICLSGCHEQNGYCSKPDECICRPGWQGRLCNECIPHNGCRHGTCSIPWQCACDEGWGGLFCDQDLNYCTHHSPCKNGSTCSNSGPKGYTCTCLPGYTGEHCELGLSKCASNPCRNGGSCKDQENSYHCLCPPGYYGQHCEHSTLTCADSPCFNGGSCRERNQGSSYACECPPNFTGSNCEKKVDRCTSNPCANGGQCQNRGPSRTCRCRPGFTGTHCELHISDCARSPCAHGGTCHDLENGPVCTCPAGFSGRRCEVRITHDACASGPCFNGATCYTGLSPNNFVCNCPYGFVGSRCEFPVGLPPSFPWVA
VEGF (used to stimulate HUVEC cells), sequence (P15692 other isoform, or with tags, fused parts or gaps limits assumed): as the sequence (P15692 other isoform, or with tags, fused parts or gaps) above
VEGF, sequence (P15692 other isoform, or with tags, fused parts or gaps limits assumed): as the sequence (P15692 other isoform, or with tags, fused parts or gaps) above

B2: DLLBII96C03 (VHH)
VHH: EVQLVESGGGLVQPGGSLRLSCAASGFTFGNYDMSWVRQAPGKGPEWVSAINSGGGDTYYADSVKGRFTISRDNAKNTLYLQMNSLKPEDTAVYYCATPRGWGPTGPHEYGYWGQGTQVTVSS
notes: also called 96C3
- IC50, DLL4/Notch1 reporter assay [2]: 5160 nM
- EC50 (read off the curve) [3]: ~20 nM
- EC50 (recombinant mouse DLL4): 8.7 nM
- EC50 (recombinant human DLL4 [4]): 86.5 nM
- % inh [5]: 83%
- binding result [6]: no binding (tested: 1000 nM)
- binding result (human Jagged-1): no binding (tested: 5e-7 M)
- Kd (recombinant human DLL4 [7]): 310 nM
- koff (recombinant human DLL4 [7]): 0.048 s⁻¹
- kon (recombinant human DLL4 [7]): 160000 M⁻¹ s⁻¹
- IC50 (recombinant human DLL4 [8]): 38.4 nM
- % inh [9]: 75%
- IC50 [10]: 28.8 nM
- IC50 [11]: 161 nM

B4: DLLBII62C11 (VHH)
VHH: EVQLMESGGGLVQPGGSLRLSCVAAGFTFSNYYMSWVRQAPGKGLEWVSVISPDGSNTYYADTVKGRFTISRGNAKNTLFLQMTGLKSEDAAVYYCARGSGSWGVHGQGTQVTVSS
- IC50, DLL4/Notch1 reporter assay [2]: 4660 nM
- EC50 (read off the curve) [3]: ~20 nM
- EC50 (recombinant mouse DLL4): 13.1 nM
- IC50 (recombinant human DLL4 [19]): 24.1 nM
- EC50 (recombinant human DLL4 [4]): 137 nM
- % inh [5]: 71%
- binding result [6]: no binding (tested: 1000 nM)
- binding result (human Jagged-1): no binding (tested: 5e-7 M)
- Kd (recombinant human DLL4 [7]): 120 nM
- koff (recombinant human DLL4 [7]): 0.13 s⁻¹
- kon (recombinant human DLL4 [7]): 1.2e+06 M⁻¹ s⁻¹
- IC50 (recombinant human DLL4 [8]): 72 nM
- % inh [9]: 74%
- IC50 [10]: 106 nM
- IC50 [11]: 172 nM

Continued, values first:

- % inhibition, VEGF HUVEC Erk phosphorylation assay, -HSA (VEGF): 95%
- IC50 (nM), VEGF HUVEC Erk phosphorylation assay, -HSA (VEGF): 0.89 nM
- IC50 (nM), DII4-mediated HUVEC proliferation assay, -HSA [1]: 2.06 nM
B1: VEGFDLLBII013 (bispecific antibody)
chain: EVQLVESGGGLVQTGDSLRLSCEVSGRTFSSYSMGWFRQAQGKEREFVVAISKGGYKYDSVSLEGRFTISKDNAKNTVYLQINSLKPEDTAVYYCASSRAYGSSRLRLADTYEYWGQGTQVTVSSGGGGSGGGGSGGGGCGGGGSGGGGSGGGGSGGGGSEVQLVESGGGLVQAGGSLRLSCAASGRTFSSYAMAWYRQAPGKEREYVAAIRWSGGTAYYADSVQGRFTISRDNAKNTVYLQMNSLKPEDTAVYYCANRAPDTRLAPYEYDHWGQGTQVTVSS
modifications: PEGylated 35gs, cys15 linker (PEG on the Cys at position 15 of the 35 Gly-Ser linker; size of the PEG not stated)

- IC50 [12]: 0.038 nM
- % inhibition [13]: 87%
- IC50 [13]: 0.048 nM
- EC50 [14]: 0.221 nM
- Kd [15]: 0.69 nM
- ka1 [15]: 300000 M⁻¹ s⁻¹
- ka2 [15]: 0.024 s⁻¹
- kd1 [15]: 0.018 s⁻¹
- kd2 [15]: 0.00027 s⁻¹
- % inhibition, VEGF HUVEC Erk phosphorylation assay [16]: 100%
- IC50, VEGF HUVEC Erk phosphorylation assay [16]: 0.25 nM
- % inhibition [17]: 100%
- IC50 [17]: 0.213 nM
- % inhibition [18]: 100%
- IC50 [18]: 0.046 nM
B3: VEGFBII023 (VHH, not shown: small tags and cut ends)
chain: EVQLVESGGGLVQTGDSLRLSCEVSGRTFSSYSMGWFRQAQGKEREFVVAISKGGYKYDSVSLEGRFTISKDNAKNTVYLQINSLKPEDTAVYYCASSRAYGSSRLRLADTYEYWGQGTQVTVSSGGGGSGGGGSGGGGSGGGGSGGGGSGGGGSGGGGSGGGGSEVQLVESGGGLVQAGGSLRLSCAASGRTFSNYAMGWFRQAPGKERVLVADISSSGINTYVADAVKGRFTISRDNAKNTVYLQMNSLKPEDTAVYYCAASAWWYSQMARDNYRYWGQGTQVTVSS
notes: Bivalent anti-VEGF VHH; also called VEGFBII23B04-40GS-10E07
